Results on 17 sequences are retold here after a protein production outcome set (Wang et al. 2014).

The nature of the series: label from the status in PepcDB records.
With “MELPSFIFQAQENLVERPWGGEWIALLKGFRQSGIGESWEFSAHTSRPSTVLVKGQQLSMIELFSKHRDELLGRAAEKFSKFPILVRLIDAASPTQVHVHPSDKAAESLGEAEGGVESAWLVFNKGKAYAGFKEDVKIEELEEKLKEEDFDFKTLLNTFETTPYDTFVIRPGIPHAGEGLRVLEVSSNSTLAYFFNENDWEKVKKVLNTKKVEEFEVKGKKGMAETENFGLEVVDVTGTAEIKTGGVMNILYAAEGYFILRGKETADLHRGYSCLVPASTDSFTVESERGKIVRIYLKV”, the protein production result is “not failed”.

For the sequence “MAHLVITIGCEYGAKGNQIGKKVAKDLGIKFYDRDTVDEIIKEVGIPKDIMEKVEEGITIAGKGAEGDVRGSFSKYADLTERAIHVQKTIIRKLSDRESCVIIGRSADYILKEHKPILRIFIYSPDEVRIENVMKSHNLSEDDAKLFITEKDKRYHKRHMALTGSNRGDRHNRDMLIDSSLLGVDGTAELIESLARKVVENESKTEAGGDK”, the protein production result is on record as “not failed”.

Take “MVWLWCVLHLLVAALGTWGLRRYALHRRLLDHPGERRSHVVATPRGGGMAIVAAILLGCVAACALWPTSRLTVCWFAAGLVAVAGVGWWDDHRPLSARLRFSIHLAASVALGALVWHGTGSVWDGVLTAAASVMLINVWNFMDGINGLASTQAALAALGFSLVAPVGWSWAGLAVAAACLGFVPFNFPRARIFMGDGGSGALGYVLAALLALNVAGGQVSWWISWLPLTAFLVDAGFTLLARMLSGQRWWEPHAQHVYQRLARRLETHVPVTGVYFAFSLIAVCLYLLIRHDPFWLQVSGALVWGMGATAIWHFLRDGLRNS”: the protein production entry is “failed”.

Take “MENDKHNNPKTIFIPDDIAEGIFHHLPIKSLARFKVLSKKWTSMIESTYFSHKRLIRTGLPTPNMKFLHISQHFTANFVEEYSNSITFLLETFSRDDQNNRKTFDESQNKTIQVLGSCDGLVLLRIHDDFRSIYLINPTTKEHMKLSPEFMQWPFTLSYLTPAMANKPWRQLSQSVLDYDISVKRMPSLAGFGKDIVKKSYKVVLIYTRYEIHDHEFKAKVLSLDNGEQRDVGFYDIHHCIFCDEQTSVYANGSLFWLTLKKLSQTSYQLLAIDLHTEEFRWILLPECDTKYATNIEMWNLNERLCLSDVLESSNLVVWSLHQEYPTEKWEKIYSIKIDVIRTNQLHEKFWMLGLAAAYFSNIRNRQDQVSFFRQRTISYLPTMISPSNLML”: the protein production result was “failed”.

For the sequence “MRSLCAGGRAIGLSGPDSRRHHRPQGPSEGASLILPDLSSSIAVGALIYWMLLLTIKHVFADFIFQNKWMAMGKDAKTGWALPLLAHCSVHLVMTTLLMLILAPRYWYIGVIDFLIHLAIDRLKGFLVATYDVTNQDRWFWWLIGTDQALHHLTGFGLAIVLAANP”, the protein production entry is given as “failed”.

Regarding “MATAENTELIDRFEEFYRNYYRNEIGELAQKYPNDQKSLYIDWDDLYRFDPDLADDYRTKPEQIQEYAEEALRLYDLPVDVSLGQAHVRVRNLPESEDIRDLRHEHHGNLVAVRGIIRKATDVRPKVIEAAFECQRCGTLTRIPQTAGDFQEPHDCQGCERQGPFRLNTDQSQFIDAQKLRVQESPEGLRGGETPQSIDINIEDDITGHVTAGDHVRVTGILKLDQRGNDNEKSPMFDIYMEGVSVEIEDEQFEDMEITDADKTEIVELSSEPDIYDKMVGAIAPSIYGYEKEKLAMMLQLFSGVTKELPDGSRIRGDLHMLLIGDPGTGKCVHGDTRVTLADGHERPIREVVESNLDDPKPVDDGVWDTVDFDVPSLQSDGTVATQNATKVWKRKAPETLYRIRTATGRELDVTPSHPLFVQSDGRFQARKAEELESGTHVAVPRKVSTNACNELDVTFRQSQAHNRIDLDLPPQWTPELARLIGYIVAEGYVEQRPDNTGYVSITNNDREVLDDAKSVLETLNLNVTERSSHEGKTARELLCSAGEFVSFLASLDETLLQSSAERRVPQDIMRASDNVVTGFIRGYIEGEGHVSTSQREITVASMSKPLLEDVRTLLVTQGITAQLQPRNNGSYRLRISGQSFHDYAEQIGFITARKTEACRQFEGTHGNTNLDIVPNLGPELRRIREALGLTQSECGLPRSTYQHYERGRRNPSRDSLESVLDAFETRLAEMNNDTPISDTARSDGGGTGSLRQDLNGLAALVEGDIAWDRIESIEPIEHDEKWVYDLEIEGTHNYLTNGVVSHNSQMLSYIENIAPRSVYTSGKGSSSAGLTAAAVRDDFGDGQQWTLEAGALVLADQGIAAIDELDKMSPEDRSAMHEALEQQRISVSKAGINATLKSRCSLLGAANPKYGRFDQYEPIGEQIDLEPALISRFDLIFTVTDKPDEEKDRNLAEHIIQTNYAGELHTHRTENPTSNFSEEEVGTVTEEVAPTIEPDLLRKYVAYAKRNCFPTMTEEAKSRIEDFYVDLRLKGQDEDAPVPVTARKLEALVRLAEASARIRLSDTVDEADADRAVDIAHYCLKEIGVDPETGEFDADVVETGQSKTQRDRIQNIKGIISDIEDEYDEGAPADVVIERAEEVGIDESKAEHEIDKLKQKGEVYEPRTDHLRTT”, the protein production result is reported as “failed”.

With “MGLDVDWALDWLKLSAKAMAEHRVELIELDRPIGDSDHGENMDRGFQAVLQKLDETPPETPGAALKAAAMALMSKVGGAAGPLYGTAYLRAATSLGDAGDIDAEALAAALAAARDGVVARGKAELGDKTMIDAWTPAVEAAQKAAASGADPVAVLEAAAEAAETGAMATDPLVARKGRASYLGERSAGHRDPGAASTALLLRAAAAAAAGSTADKGADAV”, the protein production result was “failed”.

As to “MGGATSGAVSSLNSRLALAHTPLLNTPQKPVDCRPHRTRTSDSAPMELHYRITPAHTEAWIAEPLKQELLKDDQQHVRAMSTFARWQSRFIGPVMFTLCLIGGCLSIYFPERNFTAEKVIAMVAFALIFIPLWWRFSGRWIKHLQARIAATPIKPQAPLRGLSQRLIETRLRAVEGTYCLNFDDQGFTLLNARGGQSSLAWKQIASVQEIPDFYLVADADMERQGVACFIAKHTDLMPTEAYQQGLQAFLSQCPAALPAH”, the protein production result is on record as “failed”.

Consider “FPPGTPLELGKEIAVYRIDGPVFFGAAERFATFLRDEPEVKYLILRLRFVPNMDTTGLVALEDIYHDLERHNCRLILTGLQPEVKQLLERTGLLKTIGLSNCFETTTDAICSISPQIQRCSQP”, for which the protein production result was “failed”.

For “MIVSITLLILAVGVFAIILARFIRIPYTLLLVVLGFFLSLFTVAFGIDTGVRASNFQDLMLFILLPVLIFEAAFALNSKLLFKYLPNVLTLATLGLIISTLVIAVFLYFGIAHSGFPFIAALLTGVVISATDPVAVVGQLKALKAPDDLNVLIEGESLFNDATAIVLFSIILSIALGQSEPDLTSAIITFSKVFFGGIIVGSVFGYIAALLVKIIDTSVPHMVVITLFLAYGTFYIAEHLFHVSGIVAVMFAALLFKKSAQDQLKDVHTGLHNIWESLGFIANIFVFVLLGLVVSLNMFTQMWLAIILAIVGAFIARVIAVYCSVWLNQVIVGQPINRKYPPIMIWGGLRGAVTIALVLSLPTELPYWWTIQSIGFGIVLFTLIVQATTTPLLVKKLNI”, the protein production result is listed as “failed”.

Take “MTSSSPPAIPADARRQHAERTTLVSAAVNCALSAGQIAAGLWSHSQGLVADGLHTLSDLIADGIVFIANRNSHKGPDEDHQYGHARYENAASLGLGLLLMAAGAGMIWSALASLSAPHGAAPVHGLALWVALAALAAKEGLFRYMLAVARRIGSRMLVANAWHARSDAVSSLVAAVGVAGNLMGFRWLDPVAACVVGAMIGRVGIRFGWEALNDLMDRALPPAQVQAIRASLAATPGVINVHDLRTRVTGDQALVDAHIEVDPRVSVSEGHAIAVRARANVLAAHTAMAVLDVQLHVDPRERVYTDPLPLPDRDALCAVLAQALPPGTPLDARHCLLHYVEGGVEVDLILPPSLADHAAPVAETVRARWHGRVRLRALTAASGATARGPVRP”: the protein production entry is listed as “failed”.

Consider “MTAEPAATSAPLSGPVAVIGCGWVGWPLARALLVAGAEVRGSATTPEKVAALRAEGVAATRLRLTPDTSPESDELTELLRGAHRLVLTVPPGRGPERERYAEYLSPVAQAAALHGVRQLIFTSSTGVYPNDPHVMTESDALATPDSPSPLLRAEAALAAAGVPLTVLRFAGLYGPGRPPGRFLAGRTEVGEGSAPVNLVHLDDCVGAVQHMLGGDFGGQTFNVCAAAHPLRRDFYPAAARALGLEAPSFAPHEGGGKIIGSEAFRAATGYHFRHDDPLSDLHTLGNGQGA”, for which the protein production entry is given as “failed”.

Regarding “MVEIIIPVGPNDKLEWVKRSVNSALLQSVDKVIIYDNSERADIYNFFQELKDKLVYIKDKRMTKVNMARLRNKMLSLASDKYVIMLDSDVVIPKNYSNNIINKLERGVAYTWIHYAYSEEEIEKPLSISENNPNLGCAGLNLEVIKRIGYFDERYERDEDVWLYAKLKKTGYKVEPAEGRCLHLNKVHARLNLSSSVAEARRNLWRSKYDIMLMFDGLTDFTFLTGYSYYGSYYILAILSVIFHPLTFLYLPLIGYGVYYYKGPKKYLLNLIPGLSLAISFPYGLGYNLIQKLK”, the protein production entry is given as “failed”.

“MTAYTSWQTPHLFIFIQQDYILDSIPLSSLFITLIILLLLSAFFSSAETGLMSLNRYKIRHLTAQGHKGAKLAEKLLNKTDVLLSLILICNNLINIAASAIATMIGIRLAGDTGIAIATGILTLVMLVFSEILPKTIAVIYPEKISFLASYILTPLKKLLMPLVFLMNLIIKYLMKLMRIRQHEKSGLSIEELRSVVLEAGKFIPTAHQEMLISILDMEKVTVEDIMVPRNDIGGIDIEDDWKAIIRQLNHAAHGRVVLYKGNMDKNILGILRIREAFRLLLDKEEPSKKTLIRAVDEAYFIPEGTPLITQLMHFKTNKERLGLVVDEYGDIKGLVTLADILEEIVGEFTTSTAPTLAEEVKQQSDGSVIIEGSANLRDLNKLFNWHLPINEVRTFNGLILEHLEKIPIEGTQFRLNQLNITVLEVADNMVKKVKVELIE”: the protein production result is on record as “failed”.

In the case of “MIRRLLRMVRGRTGQRLPDGGIQQDEASKIETAGDSDAREQRAADSDTTREMGTDTGTGLSTGRFVDENVRLLLNGLSQPTFVLDAEGEVVAWNEALAELTGATRDEAVGHDHASEMFYPDGRRAKTLADKVLEHPETVHEEYDVELEAPEMGRVADTSTMLDQYGDEKHIYFAATPQYRDGELVGVVETVIDRTEEVERRLAIERLVGTLGSTLESLRSGELDARAELEDEHAAALDDELLDVVDALNAFAEEFQTLSGRVEQQADRLDDAVDRVVEAAAEISDAVGEQNELVDDAVSEMQTFSAQMEEVAATAQDVDEAASDAKETAEHGLETGQDAREAAKEVTDISEELVDDITALQARMDDIESVVEVVSDVADQTNILALNANIEAARADESGEGFAVVADEVKSLADETQSHTDDITDSIEKLREQTDRTVSAAMTSSERVDRADQRIQEMFDAFEDIADAVEAAADGIAEVAQANDDQAASIEEVTATLETVREHSERAETAAEDVESAATSQAESIDALIKRVERLREGTADAADAA”, the protein production result is on record as “failed”.

Consider “MAAQVEIEDQESVTNLDNGEIINPISDNAPNFSGDATILLREATFEHNLIKNCFLSGMGSFATETTIVTVRKILTQRLITTKAKFAVFKLFTEAMKRKNNGYANIRYGWYSGSKEEIDRVITYGFSNREIKKVENDVGSHGVGIHLVHHRYSLAAALVGEGDEEGIKNILLCRVILGKPEQIVTGSKQSYPSSNQFDSGVDNLENPRKYVIWSCNMNSYILPTYIVSFKSHLLRGLIGRARSPCVSFSVLMSILSKSLDAARMNLILTSYDDFRKRKLRREQLVRKIREVVGDNLLFKILKNQRR”, for which the protein production result was “not failed”.

Take “MLKKMLKSYDYSLIFAIVLLCGFGLVMVYSSSMITAVSRYGVSSNFFFMRQLFALIAGGALFILMALFPYKALAHQKFQKGILLVSVLALISLFVFGHVAGNAQSWFKIGGMSIQPGEFVKLVVILYLAAVYAKKQSYIDHLLTGVAPPVVMTLIICGLIAMQPDFGTAMIIGLIATCMILCSGFSGKTLVRLVILGGIVFILVSPIIYLNQDKILTEGRLARFESLEDPFKYANSSGLQVINSYYAISSGGIFGLGLGESIQKYGYLPESHTDFIMAVIAEELGIFGVLFVIFLLGFVVIKGFYIARKCEDPFGSLLAIGISSMIAIQSFINLGGVSGLIPITGVTLPFISYGGSSLVLLLGSMGILANISMFVKYSENKKKKEPLAPKGMKKKQLKKTVYL”: the protein production result was “failed”.
